Values quoted from earlier work in patent US12441709B2, “Therapeutic compounds” (INDIVIOR UK LIMITED, priority 2016, dated 2025).
No end group written: not given here.

Molecular target: T1, orexin-1 (OX1) (Homo sapiens, UniProt O43613)
T1 sequence (O43613 1-425): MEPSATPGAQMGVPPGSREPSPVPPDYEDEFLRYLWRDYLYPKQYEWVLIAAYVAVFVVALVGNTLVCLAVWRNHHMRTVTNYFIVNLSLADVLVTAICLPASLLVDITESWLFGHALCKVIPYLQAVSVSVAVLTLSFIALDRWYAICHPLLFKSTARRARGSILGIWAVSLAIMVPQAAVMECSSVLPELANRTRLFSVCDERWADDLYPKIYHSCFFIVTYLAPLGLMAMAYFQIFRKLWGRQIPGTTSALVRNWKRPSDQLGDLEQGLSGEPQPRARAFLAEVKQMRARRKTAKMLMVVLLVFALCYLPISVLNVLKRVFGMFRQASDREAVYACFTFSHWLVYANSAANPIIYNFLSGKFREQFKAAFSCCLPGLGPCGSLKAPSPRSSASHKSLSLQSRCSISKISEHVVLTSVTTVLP
Settings: affinity of OxA relative to OxB at OX1; literature reference (2); cited from earlier work

OxA: neuropeptide Orexin-A, a 33 amino acid polypeptide, agonist on OX1 and OX2 receptors (QPLPDCCRQKTCSCRLYELLHGAGNHAAGILTL; not fully specified (residue 1, C-terminus, bridges); cysteine pairing not given here; UniProt O43612 34-66, looked up)
higher affinity than OxB: > 10 fold
